How the values were obtained:
human GPR7 = target: T1, human GPR7 (Homo sapiens, UniProt P48145); experiment: Aequorin-based functional assay, WTA11 cells expressing GPR7; type: cell-based; details: in words
T1 construct: expressed in transfected cells; host or cells: CHO-K1 clone WTA11 (mitochondrial apoaequorin + Galpha16)
T1 sequence (P48145 1-328): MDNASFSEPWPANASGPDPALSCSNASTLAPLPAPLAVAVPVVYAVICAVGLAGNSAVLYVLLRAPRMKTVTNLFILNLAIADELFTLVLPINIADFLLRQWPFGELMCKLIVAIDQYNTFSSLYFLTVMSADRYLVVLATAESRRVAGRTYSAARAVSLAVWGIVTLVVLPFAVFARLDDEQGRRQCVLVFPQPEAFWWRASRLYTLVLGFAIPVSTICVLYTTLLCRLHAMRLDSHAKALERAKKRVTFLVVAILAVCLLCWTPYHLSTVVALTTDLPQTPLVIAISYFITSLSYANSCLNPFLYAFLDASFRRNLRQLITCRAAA
Protocol: CHO—K1 cells (ATCC CRL-9618 (Bethesda, Md., USA)) were previously transfected with a plasmid encoding mitochondrial apoaequorin and Gα16. A clone obtained by limit dilution, called WTA11, was grown in Nutrient Mixture HAM's F12 medium supplemented with 10% fetal calf serum, 250 μg/ml zeocin, 100 units/ml penicillin and 100 μg/ml streptomycin. A bicistronic plasmid encoding the human GPR7 was transfected into WTA11 CHO—K1 cells, using Fugene 6 (Roche Diagnostics, Mannheim, Germany). Individual clones were selected two days after transfection with 400 μg/ml neomycin and GPR7-positive clones were confirmed by northern blotting, RT-PCR and sequencing.
Functional responses were analysed by recording the luminescence of aequorin following the addition of the ligand. In brief, cells were collected from plates with PBS containing 5 mM EDTA, pelleted, and resuspended at 10^7 cells/ml in DMEM-F12 medium and incubated with 5 μM coelenterainze H (Molecular Porbes) for 4 h at room temperature. Cells were then washed in DMEM-F12 medium and resuspended at a concentration of 2×10^6 cells/ml. Cells where then mixed with the ligand, and the light emission was recorded over 60 s using a Microlumat™ luminometer (Perkin Elmer). Results are expressed as relative light units (RLU) (FIG. 5).
(§1) In the experiments described in this section, the aequorin assay measured functional responses by recording the luminescence of aequorin in GPR7- and GPR8-expressing cells following addition of (potential) agonists, as previously described (Kotani, M. et al.). In brief, cells were collected from plates with PBS containing 5 mM EDTA, pelleted, resuspended at 5×10^6 cells/ml in DMEM-F12 medium containing 0.1% BSA, incubated with 5 μM coelenterazine H (Molecular Probes, Eugene, Oreg.) for 4 h at room temperature, and diluted in DMEM-F12 medium at a concentration of 5×10^5 cells/ml. Cells where then mixed with the ligands, and the light emission was recorded over 30 s using a Microlumat™ luminometer (Perkin Elmer, Norwalk, Conn.).

human GPR8 = target: T2, human GPR8 (Homo sapiens, UniProt P48146); experiment: Aequorin-based functional assay, WTA11 cells expressing GPR8; type: cell-based; details: in words
T2 construct: expressed in transfected cells; host or cells: CHO-K1 clone WTA11 (apoaequorin + Galpha16)
Protocol: as §1

T2 sequence (P48146 whole entry): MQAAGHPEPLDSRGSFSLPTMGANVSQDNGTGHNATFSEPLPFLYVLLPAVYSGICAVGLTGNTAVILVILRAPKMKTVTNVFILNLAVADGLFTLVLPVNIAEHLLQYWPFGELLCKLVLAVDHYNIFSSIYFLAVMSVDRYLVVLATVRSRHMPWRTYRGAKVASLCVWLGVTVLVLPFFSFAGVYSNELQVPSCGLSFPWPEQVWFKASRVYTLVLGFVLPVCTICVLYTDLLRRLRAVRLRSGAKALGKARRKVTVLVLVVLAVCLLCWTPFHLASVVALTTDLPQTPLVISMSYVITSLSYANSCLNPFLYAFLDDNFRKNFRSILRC

SPYLW (UniProt Q8N729 58-62, looked up, fragment) [pro-L8 [58-62], human peptide derived from the L8 precursor]
activity in aequorin-based functional assay on GPR7 (human GPR7): inactive | activity in aequorin-based functional assay on GPR8 (human GPR8): inactive

SPYA (PYAR; UniProt Q8NG41 51-54, looked up, fragment) [pro-L7 [51-54], human peptide derived from the L7 precursor]
activity in aequorin-based functional assay on GPR7 (human GPR7): inactive | activity in aequorin-based functional assay on GPR8 (human GPR8): inactive

WYKPAAGHSSYSVGRAAGLL [pro-L7 [25-44], human peptide derived from the L7 precursor]
activity in aequorin-based functional assay on GPR7 (human GPR7): active | activity in aequorin-based functional assay on GPR8 (human GPR8): active
